# Article PMC11006472
# Molecular target: human ER membrane protein complex (EMC) with EMC2-3xFlag and EMC5-Twin-Strep (human (endogenous in Expi293F) | human) (UniProt Q8N766)
# Test: cryo-EM structure; VDAC1-bound class of the purified human EMC sample in digitonin (complex co-purified from cells), single-particle cryo-EM, 3.32 Å
# UniProt Q8N766, sequence (Q8N766 whole entry, looked up, one chain of several): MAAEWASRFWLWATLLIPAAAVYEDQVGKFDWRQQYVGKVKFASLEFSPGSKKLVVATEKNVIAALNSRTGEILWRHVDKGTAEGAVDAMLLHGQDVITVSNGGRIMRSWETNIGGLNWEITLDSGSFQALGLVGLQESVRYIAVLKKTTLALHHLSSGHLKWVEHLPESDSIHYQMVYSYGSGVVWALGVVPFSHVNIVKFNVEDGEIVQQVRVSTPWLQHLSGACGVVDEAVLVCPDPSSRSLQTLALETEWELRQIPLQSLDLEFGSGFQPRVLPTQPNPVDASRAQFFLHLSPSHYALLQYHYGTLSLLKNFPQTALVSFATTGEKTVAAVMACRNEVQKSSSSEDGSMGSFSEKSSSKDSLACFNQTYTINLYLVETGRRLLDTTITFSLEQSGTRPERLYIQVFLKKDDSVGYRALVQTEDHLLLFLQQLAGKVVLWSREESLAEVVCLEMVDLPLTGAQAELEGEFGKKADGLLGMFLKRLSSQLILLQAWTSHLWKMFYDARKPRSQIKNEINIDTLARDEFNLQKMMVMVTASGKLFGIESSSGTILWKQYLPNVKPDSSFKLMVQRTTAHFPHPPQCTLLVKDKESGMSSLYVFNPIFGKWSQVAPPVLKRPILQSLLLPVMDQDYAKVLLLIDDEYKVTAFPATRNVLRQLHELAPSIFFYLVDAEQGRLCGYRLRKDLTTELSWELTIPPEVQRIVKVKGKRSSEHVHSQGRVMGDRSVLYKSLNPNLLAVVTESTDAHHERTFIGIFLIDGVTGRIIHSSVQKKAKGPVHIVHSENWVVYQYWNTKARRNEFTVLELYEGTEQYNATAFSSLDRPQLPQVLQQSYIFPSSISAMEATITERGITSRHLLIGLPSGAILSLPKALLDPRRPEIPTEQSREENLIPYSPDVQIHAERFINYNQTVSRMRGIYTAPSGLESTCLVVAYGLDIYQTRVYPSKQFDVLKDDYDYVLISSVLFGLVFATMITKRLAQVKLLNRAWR
substance,measurement,value
"voltage-dependent anion channel 1 (VDAC1), endogenous (from UniProt P21796 1-283) (natural protein)",stoichiometry N,1
